Measurements from the domain aggregation screens of Martell et al. (2025).

assay: soluble fraction after stress (log2 fold change); higher = more stays soluble; pooled small domains, quantitative proteomics; conditions: stress: 50 degC
Procedure, shortened: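 After stress at 50°C, the amount of each protein still soluble was measured. This was done on pooled custom libraries of small protein domains, using high-throughput quantitative proteomics. The figure given is a base-two log fold change and stands for aggregation propensity, with higher values meaning more protein stays in solution.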

Sequence	soluble fraction (log2)
HMSVTSIEGRVVYDENANKIGIAKQVGIDSTQSMVLVLTKNDGTEGSISWNNIKKIGEIILLGN	-0.369
HMSWAGRRSLAALEARYRDETGISNLKIKHNGVLGYHIEVPSKSADKLMAPDSGFTHRQTLAGAVR	0.0529
HMSYDAINGYEPSDLRGSLTLEQTASMLNLPLTDVYARLGLPANYPSGATLKDGAADMGMGLSDFKHQLF	-0.0605
HMSYLDTLPGRRVAAQGAITGDAGTLAVDGDTWSARVEPGAPDVAPGDEVTVLRIDGATLVVRPLP	-0.0478
HMSYPFSEDALKEKIREYLKHNRSINRKVLEAEFHIRKQTALNWLKKLEKSGFLIKEGSRNAPVYFLAE	-0.832
HMSYQADEIKEKLIDILQNQKTGLSGLEISERIGINRITMTKYLQVFAAEGFIKQKNIGNVIIWFIEDGTE	-0.181
HMSYTYPVARLNHIKGKWYVLVSVPAHLRHLFPNQRDLRRSTGTDDESLAKRKQHALAQEIYDLFD	-0.468
HMTAFEPYLVKVMASVLNIRKGPGTSYAITGQIKDKGTYTIVAESGSWGKLKSGAGWISLSYTSKAGKA	-0.67
HMTAFSEQLIKLRKQKGLSQEQLGAAVGVTRQTVSKWELGDTTPELGKLVQLSDYFQLSIDELVGH	-0.0666
HMTAGTTALNKLQQGMSTQQVQAALGTPSDRTVKESGVELWKYYYPYENMLLYLKFRDGHLVSFGTN	-0.0161
HMTAKQDLDSIYRHLVATRKSIAENPKMVSSIDDPQALIKMLDYAIQYFYTDKRDEALAVLEKNEEQLNFR	-0.117
HMTALTTEDLERRFYAKTYEGESAQKRLARLEISVFGELRQGRPESDRLHDLNNAVLEKERAALNAGAVG	0.123
HMTAMQYVTIKDIADALGISKSSVSRALAGDVHNVSAQTIERVRAKALEMGYLRNNAAVNLR	-0.0718
HMTANDKRNALYRKIEVGRRQLPAMDEVAFRQLLAAEFGVESRKDMSVGQLSRLVNILAEKGAVF	-0.203
HMTANTLDLTYSQFLENVKNGSVNDVTIRGNNVSGNFSDGRKFKTYAVNDPTLVEKLTKMGVNISAAPL	0.267
HMTAPELSVGDYLEYRGKEYKVESLDMDGFITLTDTALEDAPRLISRVTFLTDEFIRSGEYMVIT	-0.169
HMTAQGDSSDAVQRAITEILRHEDPSHPFSDQQLVIKLRTMDISVSRRTVTKYRKLLHIPSSTHRK	-2.74
HMTARYQQVEDYIVRRIQDGSWPPGHRLPSEHELVQQFGMSRMTVNRALRDLMQKGRIVRVAGVGSFVAQD	-1.41
HMTATSKKAAWDEVNKIFPTDYERSAAESERAGYAIFRSTAEGVNAWISDLGDRLEINLPDGKTVNIWIEE	-0.282
HMTATVPDSEAGIRLDVYAAALLGVSRAGAQKYIESGAVRVNGLPAPKNRRLESGDVIEAVLPDPE	0.157
HMTAVAAEQQAQDAYRQTAANNLNEIQAKYKLPDSESDDFFTFAYERGFTQEDFIDIGLVDKIMGDYV	0.0927
HMTAVNEHELMNQFKLSLGYANGDDPQTKLSTDEKNDFMRFKEWATAMTKDSKMGKDPDYLKKLAVQWTLK	0.214
HMTAYEGLPVTLIIDGRVFQQNLQKMNLSVEWLRLELKKFGVTNLKEVLFASLDTEGKLFYQLKT	0.0485
HMTDEYYSYIGKTGTTITVLRPAGIAEVEGERLNVVSEGEFIRKGAAILVKEVEGARILVEEVN	-0.381
HMTDFESYTVRVTATNLNIRKGAGTNFHSAGYIKPGVYTIVEEADGKGATRWGKLKSGMGWISLDYAKK	-0.763

Sequence	soluble fraction (log2)
HMTDGYAMRLERLNSLEEYVLNKGTVSLEDLAERFGVSINTIRRDLNELISRGQIKKVYGGVSSLHD	0.0904
HMTDIDATSIERAVAKRRHFFLSNIQDLTMKMARRLIEKDLGLAPKHLDAAPFKTRITELVDAVIALGD	-0.165
HMTDIKYLIADGNDIKHWDTASSSYVKVSELPLTSDKFKIYGDDIYHKERTGIIAASPILKIWSPSAE	0.369
HMTDKLIAYSVDGILNVITSEAQSVKVYAIDGRLVRILQLGEGRNEVSGLAKGIYIVDNRKVAV	-1.71
HMTDLNQIGERIKGLRDALGYSPEKMASILEQKVDDYLAYEEGTKDISLSVLQRIEKEFDIDLSTLLFGT	-0.148
HMTDRKRDAIVQAAIGEFREHGFNGTSMDRVAAAADVSKRTVYNHFPSKEELFEAILLLMWE	-2.09
HMTDSISLTLNGDPRPFRAGATVADLVRDIGLDPAKVAVERNLEIVPRSTLENVHLADGDVLEIVHFV	0.0403
HMTDTIALRSVIAESGLKYKALAEIMGLSPYTLQMKIDNESEFKASEIDALANALGMDMQQRDSIFF	-0.701
HMTDVIADMLTRIRNAASSKHQTVDIPSSNLKKEIAKILLEEGYIRDFIEIDDKKQGIIRITL	-0.389
HMTDYREILRLLSLGLSRTQIADSLNVSRTTVIHTLQRAVAQELDWQTAEGMSDRELVAKLFPV	-3.47
HMTEAVYMPALQNKTLEEAQRIVEQYDLELEYTYEANAQVEEGRILSQTPQMGVLVERGEKVQAVVSLG	0.571
HMTEDELLAQFEEILDGYVGKPGGLIPALQTAQKLFGYLPKRVLQLISMKLDIPYSEVTGVVSFYSFFTTV	-0.0145
HMTEEEEFEKGFEILVNLSHFNRFSVYKEDEYVIVRIADYDFNEYFKVKKSDVGRIAEFLNENIT	-2.4
HMTEELLNQRKETMLALLNDPTYVPMKLKELAMLLNLSRDQRDELREVMESLEQDGKVILTKRGKYKIP	-0.269
HMTEELQDMESRIIEAAKRVFVRKGYEATKMSDIALEVGLGRTALHYYFRTKEMLFDAIFGRLMGV	-0.385
HMTEEPISDGIKKLVEEWENIEGNLIMIFHGIQKHYGYVPRNVAKYVSEAIDVPLTRIYEILTFYNYFTM	0.142
HMTEEYAVLWRVARQTLKPEAFDVLWMKYREQLSIAEIAGIMNRSETSVKVMLHRARKNLGTALESS	-1.71
HMTEKIEWYKEVLELEPNSKVFFPLARMLAEEQRFDEAVAVLEHGLERHGEFLEARLFFIELLHET	-3.69
HMTEKQYIYSIGDRVNIGTDEFEIVNINEKEVSIADVTFPMLVKQISYEEFDRKVKENPFNDHLII	0.0642
HMTEKSTRSVPQEHEGKRLDVAAALLFPVYSRSELARRIDAGYLLLNGKGSTPKTKVHELDLIELLEV	-0.341
HMTELKKTAVDTWVKDLGTEQALAKLDTLAVVKLRRLAREYKAFGIAGRAISKADKGMLLAEFRAYYEN	-1.86
HMTETSKLTDAKQLLESILSSGEVSYKDIISAAEEYEIGKRTLMSAKALLSIESIKKTDGWYWTLPH	-0.213
HMTEVPSLSSLKIGDLIFYRNNKGAIAHSAIITSFYNGRPFISQHTFNALNITYVKDWASKMHFIKIW	-0.0353
HMTEWDDATVKDAVEYFMSVNGRVPTVTDFKKENGLPSHPVIKQRYKINLHEWLNKNFPTYY	-0.544
HMTFEPVYDENSRILILGTFPSVKSREQQFYYGHPQNRFWKLLAALTGWKVPKTISEKKELLLQNGIA	-0.136
